Data reported in the supplement of paper PMC12042874.
± gives the uncertainty stated by the source.

Assay: amyloid nucleation score (Sup35N fusion, yeast selection) (log enrichment); library NNK1; higher = more nucleation; inactive = no reads after selection
Method in brief: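 Random libraries were run with three technical output replicates. In each, psi-negative yeast expressing Sup35N fused to peptides of 20 random codons were induced 24 hours with 100 μM copper sulfate and grown 7 days at 30°C on medium lacking adenine and uracil, and input and output plasmid inserts were Illumina-sequenced. The nucleation score is the DiMSum log enrichment of output over input reads, centred on the mode score of non-aggregating sequences, and sequences under 100 input reads were excluded.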

Substance | amyloid nucleation score
RPSWFLTADDRVWFSSTGRG | 0.053 ± 1.4
RQIVEELTSGIVGSLEV | -0.48 ± 0.57
RQMLLPGMRVGKRC | 0.144 ± 0.36
RQSSSSHSMNSGQNILPFRL | 0.279 ± 0.93
RRCRVEFLYVHSDYM | 3.79 ± 0.097
RRHLGRCTRSKLFNPLR | 0.101 ± 0.54
RRKLACCCRFSVLSSGCVQN | -0.668 ± 1.7
RRLMNMLEGGHMGG | 0.083 ± 0.29
RRLQSNLSSCEASNPDTLRC | 0.774 ± 0.36
RRQYFN | -0.855 ± 0.45
RRRFTIGASVCFRQCFYCQG | -0.491 ± 1.6
RRRLPGSSPISLGYFSSSLA | -0.509 ± 1.7
RRTRKGWIMWPGGVDNHGNY | -0.313 ± 1.3
RRTWNWPTWIMRSRRREGHG | 0.368 ± 0.42
RSCKLWY | -0.204 ± 0.85
RSCLMSC | 0.141 ± 0.54
RSEATLYRRSSDGVKNVLQK | -0.535 ± 0.32
RSFFPSNRDTTRPQATFVAR | 1.31 ± 0.68
RSFIVCSRNRVGLTNFRCLE | 0.364 ± 0.84
RSFSCLSQVFTYVPLTVRET | 0.22 ± 0.6
RSHQSQGMPSLFNLSLVLFY | 6.489 ± 0.064
RSLALEKLCSWSV | -1.38 ± 2.7
RSLQDGILKTKNCL | 0.659 ± 0.24

Substance | amyloid nucleation score
RSNFELSLSALKVMLFVGHK | inactive
RSQFWHFQWWTKSHNIMGLD | 0.803 ± 1.1
RSQSCLVYYWTRFRPVYRFA | 0.671 ± 0.29
RSRVLRMLFPAGEDYQLHMV | 0.8 ± 0.65
RSSSHYRSDERPIDFVNEQE | -1.16 ± 0.77
RSTKKFSPQDTPHSLHVKKG | 0.574 ± 0.42
RSVNSETQKFMRWFMRVWTP | -0.332 ± 0.33
RSVRCVLLVAINRVMLG | 0.52 ± 0.67
RSWLLIKLTSQHASKMLVTG | 0.569 ± 0.46
RSYGLAFGYFHNHVRSFARV | -0.735 ± 0.81
RTGYPGSEVMGTRSFLSRNS | -0.385 ± 1.9
RTVPTRWACVLVSGVWRYGA | 0.504 ± 0.46
RTWAEWCLVLVSGFGSGAML | 0.086 ± 0.54
RTYKINGQSKFSLACITTLS | -0.125 ± 0.7
RVIGTGYECTNATEDSLSYL | inactive
RVKVGSRCVSQFLSTLVQRS | -0.266 ± 1.4
RVPAFRY | inactive
RVRNMPTPSLSHMNLFSSVG | -0.038 ± 0.35
RVSAMNEGMRIVCWLVFFRP | -0.166 ± 0.9
RVTYETNGLWGKNVRYDIVN | 0.305 ± 0.34
RVVVQNI | 1.18 ± 0.97
RVYENNIY | -1.05 ± 1.7
RWDSRQGFSRASQVARRADS | -0.391 ± 0.39

Substance | amyloid nucleation score
RWGRESRLRV | -0.122 ± 0.29
RWNRTRFPHLYCKIGEKCIY | 0.312 ± 0.33
RWRFEVIKVTSFYMSFLKSA | 0.234 ± 0.47
RWSRI | -0.253 ± 0.23
RWSVSINWTRSEEHDFRNCV | 1.37 ± 0.43
RWSYA | 0.981 ± 0.58
RWVTSLRPNLDLS | 0.869 ± 0.52
RWVVSVPISCARACFSG | 0.579 ± 0.73
RWWSWCSFTSSIFYCYLLCA | 2.2 ± 0.13
RYARWYTQCWTKQRVWRPLD | 0.984 ± 0.3
RYCCHMSRSTYNIICCRWTN | inactive
RYCNKTFSTLSPVHLF | 1.11 ± 0.97
RYKIQPAIPVQEGLMGLSDP | 0.282 ± 0.43
RYLFLDWSSESRCPFAASNE | 0.104 ± 0.84
RYMVSCRGGGKWQPPLFDMR | 1.23 ± 0.66
RYRNVVRSFFNEYRLCPGIE | -0.235 ± 1.4
RYRPSVCRS | 0.872 ± 0.54
RYRRATTQFAKGHCRSLSFK | 0.91 ± 0.47
RYVGLGGFM | -0.655 ± 0.46
RYVHSAQLFVNATPHRLRLV | 0.578 ± 0.34
RYWFLSYFHPANNYDDWKNC | -1.03 ± 1.2
SACFYTATVFFMYNSFGSNV | 5.611 ± 0.055
SADSGSQSEEQSKVMRMVYG | -1.64 ± 0.83
